From patent publication US20230203155A1 (ALMAC DISCOVERY, published 2023)
Substitutions are numbered along the chain they refer to.

T1: P3A1 his myc
T1 construct: VNAR; also called P3A1 6xHis myc
T1 VNAR: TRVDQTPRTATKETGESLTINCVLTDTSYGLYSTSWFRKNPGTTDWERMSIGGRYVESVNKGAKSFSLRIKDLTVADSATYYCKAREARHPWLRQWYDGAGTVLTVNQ

B1: ROR1 2A2 mAb (BioLegend) (antibody, V domains shown)
VH: QVQLQQSGAELVRPGASVTLSCKASGYTFSDYEMHWVIQTPVHGLEWIGAIDPETGGTAYNQKFKGKAILTADKSSSTAYMELRSLTSEDSAVYYCTGYYDYDSFTYWGQGTLVTVSA
VL: DIVMTQSQKIMSTTVGDRVSITCKASQNVDAAVAWYQQKPGQSPKLLIYSASNRYTGVPDRFTGSGSGTDFTLTISNMQSEDLADYFCQQYDIYPYTFGGGTKLEIK
B2: P3A1 V1 dimer (VNAR)
chain: TRVDQSPSSLSASVGDRVTITCVLTDTSYGLYSTSWFRKNPGTTDWERMSIGGRYVESVNKGAKSFTLTISSLQPEDFATYYCKAREARHPWLRQWYDGAGTKVEIKGGGGSGGGGSGGGGSGGGGSGGGGSTRVDQSPSSLSASVGDRVTITCVLTDTSYGLYSTSWFRKNPGTTDWERMSIGGRYVESVNKGAKSFTLTISSLQPEDFATYYCKAREARHPWLRQWYDGAGTKVEIKQASGAHHHHHHGAEFEQKLISEEDL
B3: P3A1 G2 dimer (VNAR)
chain: B2 chain with S35Y, F37Y, V56S, F78S, K84R, S167Y, F169Y, V188S, F210S, K216R
notes: humanised VNAR dimer
B4: P3A1 G1 dimer (VNAR)
chain: TRVDQSPSSLSASVGDRVTITCVLTDTSYGLYSTYWYRKNPGSSNKEQISISGRYSESVNKGTKSFTLTISSLQPEDSATYYCRAREARHPWLRQWYDGAGTKVEIKGGGGSGGGGSGGGGSGGGGSGGGGSTRVDQSPSSLSASVGDRVTITCVLTDTSYGLYSTYWYRKNPGSSNKEQISISGRYSESVNKGTKSFTLTISSLQPEDSATYYCRAREARHPWLRQWYDGAGTKVEIKQASGAHHHHHHGAEFEQKLISEEDL
notes: humanised VNAR dimer
B5: D3 humanised EL V2 with His6myc tag (VNAR)
VNAR: ASVNQSPSSLSASVGDRVTITCVLTDTSYGLYSTSWFRKNPGTTDWERMSIGGRYVESVNKRAKSFTLTISSLQPEDFATYYCKAQSGMAISTGSGHGYNWYDGAGTKVEIKQ
notes: VNAR; also called D3 EL V2
B6: D3 humanised ADV2 with His6myc tag (VNAR)
VNAR: B5 VNAR with A1T, S2R, N4D, V56S, R62G, F78S
notes: VNAR; also called D3 AD V2
B7: D3 humanised EL V4 with His6myc tag (VNAR)
VNAR: B5 VNAR with F37Y, R38Q, K39Q, N40K
notes: VNAR; also called D3 EL V4
B8: D3 ADV1 dimer (VNAR)
chain: ASVNQSPSSLSASVGDRVTITCVLTDTSYGLYSTSWFRKNPGTTDWERMSIGGRYSESVNKGAKSFTLTISSLQPEDSATYYCKAQSGMAISTGSGHGYNWYDGAGTKVEIKGGGGSGGGGSGGGGSGGGGSGGGGSASVNQSPSSLSASVGDRVTITCVLTDTSYGLYSTSWFRKNPGTTDWERMSIGGRYSESVNKGAKSFTLTISSLQPEDSATYYCKAQSGMAISTGSGHGYNWYDGAGTKVEIKQASGAHHHHHHGAEFEQKLISEEDL
notes: Listing names it 'D3V1 dimer'; also called D3V1 dimer
B9: D3 ADV2 dimer (VNAR)
chain: B8 chain with A1T, S2R, N4D, A138T, S139R, N141D
notes: Listing names it 'D3V2 dimer'; also called D3V2 dimer
B10: BA11 (humanised HSA-binding VNAR) (VNAR)
VNAR: TRVDQSPSSLSASVGDRVTITCVLTDTSYPLYSTYWYRKNPGSSNKEQISISGRYSESVNKGTKSFTLTISSLQPEDSATYYCRAMSTNIWTGDGAGTKVEIK
notes: VNAR
B11: BA11-aminoxy (VNAR)
VNAR: B10 VNAR
modifications: C-terminal aminoxy (intein cleavage with dioxyamine)
B12: BA11 C-terminal thiol derivative (VNAR)
VNAR: B10 VNAR
modifications: C-terminal thiol (intein cleavage with cysteamine)
notes: also called BA11-SH
B13: BA11-C terminal cysteine-maleimide-peg-fluorescein (VNAR)
VNAR: B10 VNAR
modifications: C-terminal cysteine conjugated to maleimide-peg-fluorescein
notes: also called BA11-cys-mal-Fl
B14: BA11 C-terminal cysteine derivative (VNAR)
VNAR: B10 VNAR
modifications: additional C-terminal cysteine (intein cleavage with cysteine)
notes: also called BA11-cys
B15: BA11-oxime-fluorescein (VNAR)
VNAR: B10 VNAR
modifications: C-terminal oxime-linked benzaldehyde-peg-fluorescein
B16: BA11-C term thiol-maleimide-peg-fluorescein (VNAR)
VNAR: B10 VNAR
modifications: C-terminal thiol conjugated to maleimide-peg-fluorescein
notes: also called BA11-S-mal-Fl
B17: UC961 based mAb (antibody, human IgG1, kappa, V domains shown)
VH: QVQLQESGPGLVKPSQTLSLTCTVSGYAFTAYNIHWVRQAPGQGLEWMGSFDPYDGGSSYNQKFKDRLTISKDTSKNQVVLTMTNMDPVDTATYYCARGWYYFDYWGHGTLVTVSS
VL: DIVMTQTPLSLPVTPGEPASISCRASKSISKYLAWYQQKPGQAPRLLIYSGSTLQSGIPPRFSGSGTGTDFTLTINNIESEDAAYYFCQQHDESPYTFGEGTKVEIKR
notes: also called UC961-like; mAb based on UC-961
B18: B1 G2 (humanised/grafted B1) with His6myc tag (VNAR)
VNAR: TRVDQSPSSLSASVGDRVTITCVLTGANYGLASTYWYRKNPGSSNQERISISGRYSESVNKRTMSFTLTISSLQPEDSATYYCRAYPWGAGAPWLVQWYDGAGTKVEIKQ
notes: VNAR
B19: B1 humanised V5 with His6myc tag (VNAR)
VNAR: B18 VNAR with T1A, R2S, L24V, S33A, R84K
notes: VNAR; also called B1V5
B20: B1 G1 (humanised/grafted B1) with His6myc tag (VNAR)
VNAR: B18 VNAR with Q46K, R48Q, R62G, M64K
notes: VNAR
B21: B1 humanised V7 with His6myc tag (VNAR)
VNAR: B18 VNAR with T1A, R2S, L10A, V18L, L24V, S33A, R84K, V106L, I108V
notes: VNAR; also called B1V7

Assays:
[1] = molecular target: T2, recombinant human ROR1 (hROR1), construct not stated (human, UniProt Q01973 30-403, limits assumed); experiment: SPR, hROR1 on chip
T2 sequence (Q01973 30-403 limits assumed): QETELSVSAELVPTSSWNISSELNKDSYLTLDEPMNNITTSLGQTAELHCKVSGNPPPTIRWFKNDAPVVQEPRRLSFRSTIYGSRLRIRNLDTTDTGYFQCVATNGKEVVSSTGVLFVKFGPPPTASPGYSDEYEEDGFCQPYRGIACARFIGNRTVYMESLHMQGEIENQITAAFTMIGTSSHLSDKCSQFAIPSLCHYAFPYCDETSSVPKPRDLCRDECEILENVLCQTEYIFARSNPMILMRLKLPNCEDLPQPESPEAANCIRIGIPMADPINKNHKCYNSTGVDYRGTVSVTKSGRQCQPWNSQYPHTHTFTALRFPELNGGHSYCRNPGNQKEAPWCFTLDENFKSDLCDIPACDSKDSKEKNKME

[2] = molecular target: T2, recombinant human ROR1 (hROR1), …; experiment: SPR, hROR1 on chip with competitor P3A1 dimer pre-captured
Procedure: (§1) Competition of binding studies were completed using SPR. […] FC2 was used as the reference channel. […] Binding kinetics were determined using QDat software.

[3] = molecular target: T2, recombinant human ROR1 (hROR1), …; experiment: SPR, hROR1 on chip; remark: listed apart in the source
Procedure: as §1

[4] = molecular target: T2, recombinant human ROR1 (hROR1), …; experiment: SPR, hROR1 on chip with competitor B1 pre-captured
Procedure: as §1

[5] = molecular target: T3, human ROR1-hFc fusion protein (extracellular domain) (human); experiment: SPR, human ROR1 ECD-Fc on chip;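 also: SPR binding kinetics of VNAR and VNAR-Fc molecules run at a range of concentrations over immobilised target, rate and affinity constants fitted with QDat software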
T3 construct: Whole entry 'human ROR1-Fc (CHO)'; also called hROR1; huROR1-Fc
T3 sequence (chain, as listed by the source limits assumed): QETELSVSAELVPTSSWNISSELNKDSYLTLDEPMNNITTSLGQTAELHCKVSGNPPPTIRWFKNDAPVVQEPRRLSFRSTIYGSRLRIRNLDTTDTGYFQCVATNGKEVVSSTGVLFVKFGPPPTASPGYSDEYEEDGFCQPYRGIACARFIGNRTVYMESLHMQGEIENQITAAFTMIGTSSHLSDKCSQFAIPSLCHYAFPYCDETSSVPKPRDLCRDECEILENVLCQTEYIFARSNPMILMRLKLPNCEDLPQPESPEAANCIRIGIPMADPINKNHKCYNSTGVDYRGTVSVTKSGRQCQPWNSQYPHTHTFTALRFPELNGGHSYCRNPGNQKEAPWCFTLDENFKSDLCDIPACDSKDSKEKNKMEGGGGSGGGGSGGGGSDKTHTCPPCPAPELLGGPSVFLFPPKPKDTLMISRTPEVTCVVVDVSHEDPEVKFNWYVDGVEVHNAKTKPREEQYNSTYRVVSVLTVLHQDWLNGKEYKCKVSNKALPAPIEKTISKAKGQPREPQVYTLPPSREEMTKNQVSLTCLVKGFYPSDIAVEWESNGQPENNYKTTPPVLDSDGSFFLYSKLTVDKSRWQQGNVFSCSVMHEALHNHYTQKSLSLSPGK
Procedure: Binding kinetics were determined using a Pioneer Surface Plasmon Resonance (SPR) instrument (SensiQ/Pall ForteBio). […] VNARs and VNAR-Fc molecules were tested at various concentrations and the Ka (M⁻¹s⁻¹), Kd (s⁻¹) and KD (nM) values were determined using QDat software (SensiQ/Pall ForteBio).
Thermal stability assays used Applied Biosystems StepOne Real Time PCR system with the Protein Thermal Shift™ dye kit (Thermo). The assay mix was set up so that the protein was at a final concentration of 20 OA in 20 μL. 5 μL of Thermal Shift™ buffer was added alongside 2.5 uL 8× Thermal Shift™ Dye. Assays were run using the StepOne software and data analysed using Protein Thermal Shift™ software. All data are from first derivative analysis.

human serum albumin [6] = molecular target: T4, human serum albumin (human, UniProt P02768 25-609); experiment: SPR, albumin on chip, pH 5.5;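 also: albumins amine-coupled onto carboxyl SPR chips, with each analyte also run over a hen egg lysozyme surface as negative control, Kd derived from binding kinetics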
T4 construct: also called HSA
Procedure: (§2) Binding kinetics were determined using SPR. The serum albumins or negative control protein were immobilised to COOH₂ chips by amine coupling using optimised buffer conditions as follows: —Human serum albumin (HSA) and mouse serum albumin (MSA) were immobilised in sodium acetate pH5 buffer. Rat serum albumin (RSA) and cynomolgous serum albumin (CSA) in sodium acetate pH 4.5 buffer and the negative control hen egg lysozyme (HEL) protein was immobilised in sodium acetate pH 5.5 buffer.
(§3) For each analyte test experiment, binding to the chosen serum albumin protein was assayed alongside the negative control protein (HEL).

[7] = molecular target: T5, cynomolgous serum albumin (cynomolgous, UniProt A2V9Z4 25-608); experiment: SPR, albumin on chip, pH 5.5;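 also: albumins amine-coupled onto carboxyl SPR chips, with each analyte also run over a hen egg lysozyme surface as negative control, Kd derived from binding kinetics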
T5 construct: also called CSA; Cyano
T5 sequence (A2V9Z4 25-608 limits assumed): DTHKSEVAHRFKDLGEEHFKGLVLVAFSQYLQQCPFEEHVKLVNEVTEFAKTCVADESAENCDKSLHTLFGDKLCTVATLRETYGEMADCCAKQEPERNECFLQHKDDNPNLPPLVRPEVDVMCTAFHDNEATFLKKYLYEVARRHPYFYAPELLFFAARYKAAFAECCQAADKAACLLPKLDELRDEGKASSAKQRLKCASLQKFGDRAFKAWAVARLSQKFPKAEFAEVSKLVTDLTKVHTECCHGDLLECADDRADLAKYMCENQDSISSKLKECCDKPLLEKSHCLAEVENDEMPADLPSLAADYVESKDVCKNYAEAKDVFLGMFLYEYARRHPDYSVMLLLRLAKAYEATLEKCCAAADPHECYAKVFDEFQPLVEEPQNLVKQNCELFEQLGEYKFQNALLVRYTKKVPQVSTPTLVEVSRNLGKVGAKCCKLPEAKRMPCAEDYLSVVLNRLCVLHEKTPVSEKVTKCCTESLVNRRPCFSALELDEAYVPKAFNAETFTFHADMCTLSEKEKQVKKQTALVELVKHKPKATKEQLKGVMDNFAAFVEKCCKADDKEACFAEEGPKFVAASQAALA
Procedure: as §2, §3

rat serum albumin [8] = molecular target: T6, rat serum albumin (rat, UniProt P02770 25-608); experiment: SPR, albumin on chip, pH 5.5;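 also: albumins amine-coupled onto carboxyl SPR chips, with each analyte also run over a hen egg lysozyme surface as negative control, Kd derived from binding kinetics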
T6 construct: also called RSA
T6 sequence (P02770 25-608 limits assumed): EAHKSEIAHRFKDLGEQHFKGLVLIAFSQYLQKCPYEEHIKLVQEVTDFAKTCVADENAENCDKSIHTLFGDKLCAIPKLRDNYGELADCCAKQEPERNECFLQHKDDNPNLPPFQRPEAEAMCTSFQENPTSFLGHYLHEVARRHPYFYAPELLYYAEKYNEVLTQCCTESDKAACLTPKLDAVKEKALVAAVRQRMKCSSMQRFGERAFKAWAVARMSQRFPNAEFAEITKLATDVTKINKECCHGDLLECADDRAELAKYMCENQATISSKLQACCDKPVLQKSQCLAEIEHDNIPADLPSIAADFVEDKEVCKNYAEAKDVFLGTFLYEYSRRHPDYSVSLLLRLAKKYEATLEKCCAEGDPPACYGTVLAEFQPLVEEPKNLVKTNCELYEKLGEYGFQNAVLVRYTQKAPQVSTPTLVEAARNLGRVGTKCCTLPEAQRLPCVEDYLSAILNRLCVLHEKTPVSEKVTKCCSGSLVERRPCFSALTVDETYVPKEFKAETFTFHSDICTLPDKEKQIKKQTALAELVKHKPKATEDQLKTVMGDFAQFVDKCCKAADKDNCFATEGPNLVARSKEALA
Procedure: as §2, §3

mouse serum albumin [9] = molecular target: T7, mouse serum albumin (mouse, UniProt P07724 25-608); experiment: SPR, albumin on chip, pH 5.5;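 also: albumins amine-coupled onto carboxyl SPR chips, with each analyte also run over a hen egg lysozyme surface as negative control, Kd derived from binding kinetics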
T7 construct: also called MSA
T7 sequence (P07724 25-608 limits assumed): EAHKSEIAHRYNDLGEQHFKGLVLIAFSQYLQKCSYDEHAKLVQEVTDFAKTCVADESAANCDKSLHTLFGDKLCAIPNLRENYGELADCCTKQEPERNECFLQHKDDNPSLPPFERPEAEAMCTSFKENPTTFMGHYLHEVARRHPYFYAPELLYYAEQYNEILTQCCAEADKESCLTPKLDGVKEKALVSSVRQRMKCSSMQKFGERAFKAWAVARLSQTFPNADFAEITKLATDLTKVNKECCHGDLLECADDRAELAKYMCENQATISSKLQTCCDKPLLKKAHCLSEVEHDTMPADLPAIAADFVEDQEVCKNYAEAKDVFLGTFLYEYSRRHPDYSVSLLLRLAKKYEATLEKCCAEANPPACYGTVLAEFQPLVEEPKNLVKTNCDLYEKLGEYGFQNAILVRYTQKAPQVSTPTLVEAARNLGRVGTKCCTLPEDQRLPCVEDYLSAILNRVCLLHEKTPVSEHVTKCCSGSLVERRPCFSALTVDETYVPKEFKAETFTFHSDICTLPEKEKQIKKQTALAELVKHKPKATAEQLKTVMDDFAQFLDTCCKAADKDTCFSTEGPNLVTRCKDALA
Procedure: as §2, §3

human serum albumin [10] = molecular target: T4, human serum albumin; experiment: SPR, albumin on chip, pH 7.4;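 also: Human, mouse, rat and cynomolgus serum albumins amine-coupled to carboxyl sensor chips, with a hen egg lysozyme surface measured in parallel as negative control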
Procedure: as §2, §3

[11] = molecular target: T5, cynomolgous serum albumin; experiment: SPR, albumin on chip, pH 7.4;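 also: Human, mouse, rat and cynomolgus serum albumins amine-coupled to carboxyl sensor chips, with a hen egg lysozyme surface measured in parallel as negative control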
Procedure: as §2, §3

rat serum albumin [12] = molecular target: T6, rat serum albumin; experiment: SPR, albumin on chip, pH 7.4;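 also: Human, mouse, rat and cynomolgus serum albumins amine-coupled to carboxyl sensor chips, with a hen egg lysozyme surface measured in parallel as negative control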
Procedure: as §2, §3

mouse serum albumin [13] = molecular target: T7, mouse serum albumin; experiment: SPR, albumin on chip, pH 7.4;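 also: Human, mouse, rat and cynomolgus serum albumins amine-coupled to carboxyl sensor chips, with a hen egg lysozyme surface measured in parallel as negative control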
Procedure: as §2, §3

D3-[G4S]5-D3 his myc = molecular target: T8, D3-[G4S]5-D3 his myc; experiment: competition ELISA: D3-D3 pre-incubated with peptide, residual binding to coated huROR1-Fc
T8 construct: VNAR homodimer by genetic fusion; also called D3-D3; D3 dimer

D3 his myc = molecular target: T9, D3 his myc; experiment: competition ELISA: D3 pre-incubated with peptide, residual binding to coated huROR1-Fc
T9 construct: VNAR; made in E. coli and in HEK293 (expression system under assay); also called D3 WT

P3A1 his myc = molecular target: T1, P3A1 his myc; experiment: competition ELISA: P3A1 pre-incubated with peptide, residual binding to coated huROR1-Fc
Procedure: (§4) In brief, ELISA method as follows. Wells coated with 100 ng antigen and incubated, covered, at room temperature for 2 hr. Plates washed 3×400 ul per well with PBST (PBS+0.05% Tween 20 (v/v)), then blocked with 4% skimmed milk powder (w/v) in PBST for 1 hour at 37° C. Plates washed as before plus additional wash in PBS alone. Binding proteins were diluted in 4% milk PBST and incubated overnight at 4° C. Plates washed 3× with PBST, 3×PBS and binding detected using appropriate secondary detection antibody in 4% milk PBST, room temperature 1 hour. […] Rabbit anti-Mouse IgG H&L, HRP (Abcam #ab97046) [0360] Mouse anti-polyHis, HRP (Sigma #A7058)
(§5) Competition assays were conducted as described in the methods with all four peptides reconstituted in PBS.

[14] = molecular target: T10, B1 VNAR with C-terminal His6Myc tag; experiment: competition ELISA: B1 pre-incubated with peptide, residual binding to coated huROR1-Fc
T10 construct: VNAR, E. coli; also called B1 his myc; B1HisMyc monomer
Procedure: as §4, §5

Row | Binder | Kd [5] [nM] | koff [5] [s⁻¹] | kon [5] [M⁻¹ s⁻¹] | Kd (mouse serum albumin [9]) [nM] | Kd (human serum albumin [10]) [nM] | Kd [11] [nM] | Kd (rat serum albumin [12]) [nM] | further results
1 | B1 |  |  |  |  |  |  |  | Kd [1]: 0.233 nM; koff [1]: 0.000342 s⁻¹; kon [1]: 1.47e+06 M⁻¹ s⁻¹; Kd [2]: 0.231 nM; koff [2]: 0.000322 s⁻¹; kon [2]: 1.39e+06 M⁻¹ s⁻¹; Kd [3]: 0.21 nM; koff [3]: 0.000211 s⁻¹; kon [3]: 979000 M⁻¹ s⁻¹; Kd [4]: 0.101 nM; koff [4]: 8.47e-05 s⁻¹; kon [4]: 835000 M⁻¹ s⁻¹
2 | B2 | 0.18 | 0.000846 | 4.78e+06 |  |  |  |  | 
3 | B3 | 0.77 | 0.00119 | 1.88e+06 |  |  |  |  | 
4 | B4 | 0.43 | 0.00147 | 4.3e+06 |  |  |  |  | 
5 | B5 | 18.9 | ~0.0163 | 1.85e+06 |  |  |  |  | 
6 | B6 | 51.6 | 0.00236 | 45800 |  |  |  |  | 
7 | B7 | 58.5 | ~0.0545 | 1.38e+06 |  |  |  |  | 
8 | B8 | 8.92 | 0.00567 | 636000 |  |  |  |  | 
9 | B9 | 26.2 | 0.016 | 609000 |  |  |  |  | 
10 | B10 |  |  |  | 4.8 | 0.636 | 3.36 | 2.97 | Kd (human serum albumin [6]): 0.91 nM; Kd [7]: 1.11 nM; Kd (rat serum albumin [8]): 4.39 nM; Kd (mouse serum albumin [13]): 1.9 nM
11 | B11 |  |  |  | 21.2 | 1.12 | 7.97 | 10.8 | Kd (mouse serum albumin [13]): 8.77 nM
12 | B12 |  |  |  | 11.1 | 0.774 | 3.41 | 7.67 | Kd (human serum albumin [6]): 2.23 nM; Kd [7]: 6.74 nM; Kd (rat serum albumin [8]): 12.1 nM; Kd (mouse serum albumin [13]): 4.76 nM
13 | B13 |  |  |  | 13.6 | 1.1 | 3.68 | 4.78 | Kd (human serum albumin [6]): 3.16 nM; Kd [7]: 8.21 nM; Kd (rat serum albumin [8]): 7.24 nM; Kd (mouse serum albumin [13]): 5.06 nM
14 | B14 |  |  |  | 3.77 | 0.756 | 2.1 | 3.37 | Kd (human serum albumin [6]): 1.96 nM; Kd (rat serum albumin [8]): 3.21 nM
15 | B15 |  |  |  | 7.44 | 0.677 | 1.75 | 5.72 | Kd (human serum albumin [6]): 1.3 nM; Kd [7]: 5.54 nM; Kd (rat serum albumin [8]): 5.93 nM; Kd (mouse serum albumin [13]): 4.24 nM
16 | B16 |  |  |  | 10.6 | 1.42 | 2.3 | 5.3 | Kd (human serum albumin [6]): 1.91 nM; Kd [7]: 7.01 nM; Kd (rat serum albumin [8]): 7.92 nM; Kd (mouse serum albumin [13]): 5 nM
17 | YMESLHMQGEIENQI (linear ROR1 ECD peptide) [Peptide 1] |  |  |  |  |  |  |  | binding result (D3-[G4S]5-D3 his myc): no binding; binding result (D3 his myc): no binding; binding result (P3A1 his myc): no binding (tested: about 500 uM as the axis is labelled); binding result [14]: no binding (tested: 10 uM)
18 | B17 |  |  |  |  |  |  |  | Kd [1]: 0.078 nM; koff [1]: 0.000451 s⁻¹; kon [1]: 5.77e+06 M⁻¹ s⁻¹; Kd [2]: 0.081 nM; koff [2]: 0.000444 s⁻¹; kon [2]: 5.48e+06 M⁻¹ s⁻¹
19 | B18 | 45.9 | 0.0079 | 185000 |  |  |  |  | 
20 | B19 | 0.74 | 3.85e-05 | 52000 |  |  |  |  | 
21 | B20 | 82.8 | 0.0162 | 220000 |  |  |  |  | 
22 | B21 | 0.77 | 5.54e-05 | 77400 |  |  |  |  | 
